Entries after “also recorded” stand apart in the source; their conditions may differ. Ends that are not written are not given here. * marks the point of attachment. Pent4ynoyl = C#CCCC(=O)*
What was measured:
[1] = Dynamic light scattering (DLS) size measurement; assay type: physicochemical
Procedure: For determination of size, 1 mL of each sample was measured at the same concentration as used for the biological assay. Each sample was measured at least three times at 25° C., with each individual size measurement being the average of 10 runs.

[2] = biological target: T1, PSMA on LNCaP cells (Homo sapiens, UniProt Q04609); experiment: Cell-based phage ELISA, recognition of cell surface PSMA by PEGylated ligands on phage; conditions: for binding affinity for cell surface PSMA: PEGylated ligand 2 variants, specific/non-specific attachment, with/without PEG4 linker, FIG. 5A; for binding affinity of dual ligand combinations: 2:1 dual ligand combinations on phage, FIG. 5B
T1 construct: endogenous in cells; host or cells: LNCaP (also LNCaP CSS), glutaraldehyde-fixed on Maxisorp plates
T1 sequence (Q04609 whole entry): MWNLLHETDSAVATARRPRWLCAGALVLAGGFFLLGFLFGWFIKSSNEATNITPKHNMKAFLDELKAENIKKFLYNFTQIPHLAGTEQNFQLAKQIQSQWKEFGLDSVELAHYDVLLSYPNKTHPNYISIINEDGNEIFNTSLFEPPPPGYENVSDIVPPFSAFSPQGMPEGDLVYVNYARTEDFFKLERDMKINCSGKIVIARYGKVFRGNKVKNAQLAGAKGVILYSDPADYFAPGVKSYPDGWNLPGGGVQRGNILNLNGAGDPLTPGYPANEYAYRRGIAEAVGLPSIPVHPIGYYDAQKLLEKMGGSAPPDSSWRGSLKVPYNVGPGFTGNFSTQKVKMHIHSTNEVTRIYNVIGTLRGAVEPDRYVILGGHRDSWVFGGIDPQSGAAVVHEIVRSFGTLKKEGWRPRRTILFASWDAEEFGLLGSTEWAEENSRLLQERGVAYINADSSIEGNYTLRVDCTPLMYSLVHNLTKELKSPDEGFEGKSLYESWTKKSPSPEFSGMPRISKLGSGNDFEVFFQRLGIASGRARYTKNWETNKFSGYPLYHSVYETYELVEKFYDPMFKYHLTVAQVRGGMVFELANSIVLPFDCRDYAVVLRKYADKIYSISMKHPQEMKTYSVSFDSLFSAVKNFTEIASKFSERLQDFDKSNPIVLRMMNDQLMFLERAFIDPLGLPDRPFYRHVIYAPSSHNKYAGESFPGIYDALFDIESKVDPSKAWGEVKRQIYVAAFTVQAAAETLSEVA
Procedure: Day 1: The cell-based ELISA was performed as previously described by Watanabe et. al. with the following modifications. Cells were detached with Trypsin-EDTA, resuspended in PBS, and then collected by centrifuging at 1200 rpm for 5 min. The cells were further washed with PBS and then concentrated as in the previous step. The concentration of the cells was adjusted to 4.5×10^6 cells/mL in PBS using a hemocytometer, and 100 μL was aliquoted to specific wells of a 96-well microtiter plate (Maxisorp plates from Nunc). The Maxisorp plates used here have a high protein-binding capacity. Thus, the plates can be used to run assays with either the cells or the phage immobilized in the wells. Next, 50 μL of a 0.15% glutaraldehyde in PBS solution was added to the wells at 4° C., and the solution was gently mixed by pipetting. The ELISA plate was then centrifuged at 1200 rpm for 10 min at 4° C., followed by overnight incubation at 4° C.
Day 2: The cell solution was gently removed, and the wells were blocked with 200 μL/well of blocking buffer containing 100 mM glycine, 1% gelatin and 0.1% w/v BSA (bovine serum albumin) in PBS. The plate was incubated overnight (˜20-22 h) at room temperature.
Separately, phage were prepared before attachment to PEG and PEGylated ligands. Phage (10 nM in 100 μL of PBS) and 1 μL of K14-alkyne (525 μM in water) were thoroughly mixed by pipetting ˜25 times. For phage wrapped with PEGylated ligands, phage were mixed with 0.75 μL of K14-Cys (525 μM in water). For mixed wrapping on the phage surface, 0.5 μL of K14-alkyne was pre-mixed with 0.75 μL of K14-Cys, and then mixed with 100 μL of 10 nM phage. The solution was shaken at room temperature for 15 min on an orbital shaker. Next, 2 μL of PEGylated ligand (625 μM in water) was added to the appropriate wells. For the dual ligand combinations, the PEGylated ligands were pre-mixed in the desired ratio (a 2:1 molar ratio for example), and then 2 μL of the mixture was added to the appropriate wells. The solutions were gently mixed by pipetting, and incubated overnight at 4° C.
Day 3: Next, the click reaction was performed, as previously described, but with the following modifications. To buffer the pH, triethylammonium acetate was added to a final concentration of 50 mM, followed by the addition of 1.5 μL of 1 mM azide-functionalized PEG. The solutions were mixed by pipetting. Next, ascorbic acid was added to a final concentration of 1 mM and the solutions were mixed by gently pipetting. Then, copper sulfate was added to a final concentration of 1.5 mM, followed by pipetting to mix the solutions. Water was added to the other wells to maintain consistent phage concentrations. The plate was incubated at room temperature for 30 min.
The wells of the ELISA plate were then incubated with the phage samples. The blocking buffer was removed and the wells were gently washed two times with PBS. Next, the phage solution was added to the respective wells and incubated for 45 min. The phage solution was removed, and the wells were washed three times with 300 μL/well of wash buffer PT (0.05% Tween-20 in PBS), once with PBS, and then incubated with horseradish peroxidase-conjugated anti-M13 antibody (100 μL/well, 1:5000 dilution in PBS) for 40 min. The wells were washed three times with PT and once with PBS. The plate was then developed by incubating with HRP substrate solution (100 μL/well; 1 mg/mL o-phenylenediamine dihydrochloride and 0.02% w/v H2O2) in citric acid buffer (50 mM citric acid, 50 mM Na2HPO4, pH 5.0). The HRP activity was measured spectrophotometrically at 450 nm using a microtiter plate reader (Bio-Tek). The absorbance at 630 nm was subtracted from the absorbance at 450 nm to eliminate background.

[3] = biological target: T2, PSMA (Homo sapiens, UniProt Q04609); conditions: genetically encoded, phage-displayed ligands [4,10]; cited from earlier work
T2 construct: The effective detection of PSMA shed by LNCaP cells, in androgen sensitive and androgen independent cells; endogenous in cells; host or cells: culture supernatant of LNCaP and LNCaP CSS cells
T2 sequence (Q04609 whole entry): as above

Question: What does the source list for “P100SP-P4-2: PEG100, specific attachment, PEG4 linker, ligand 2; on phage wrapped with K14-Cys (SECVEVFQNSCDW-NH2; not fully specified (N-terminus); cysteine pairing not given here; also: PEG100, specific attachment, PEG4 linker)”?
Answer: increase in cross-sectional diameter ([1]; DLS backscatter mode, relative to previous wrapping step, FIGS. 3A-3B): 10 nm; binding affinity for cell surface PSMA [2]: most effective architecture

Question: For SECVEVFQNSCDW [ligand-2], which “higher affinity to PSMA than ligand-1” value [3] is on record?
Answer: > 100 fold

Question: With “P100SP-P4-2+P100SP-P4-1: phage wrapped with dual ligand combination in a 2:1 ratio, specific attachment with PEG4 linker (peptide 1 SECVEVFQNSCDW-NH2; peptide 2 CALCEFLG-NH2; not fully specified (N-terminus); cysteine pairing not given here; also: mixture of two PEG100 conjugates (ligand 2 and ligand 1, 2:1) with PEG4 linker, specific N-terminal triazole attachment)” as the substance, how does the “binding affinity of dual ligand combinations” value ([2]; LNCaP cells) read?
Answer: significant increase in binding affinity

Question: For “K14-alkyne: alkyne-functionalized oligolysine (K14) peptide that wraps the phage, SEQ ID NO:1 (Pent4ynoyl-KKKKKKKKKKKKKK-NH2; SMILES C#CCCC(=O)N[C@@H](CCCCN)C(=O)N[C@@H](CCCCN)C(=O)N[C@@H](CCCCN)C(=O)N[C@@H](CCCCN)C(=O)N[C@@H](CCCCN)C(=O)N[C@@H](CCCCN)C(=O)N[C@@H](CCCCN)C(=O)N[C@@H](CCCCN)C(=O)N[C@@H](CCCCN)C(=O)N[C@@H](CCCCN)C(=O)N[C@@H](CCCCN)C(=O)N[C@@H](CCCCN)C(=O)N[C@@H](CCCCN)C(=O)N[C@@H](CCCCN)C(N)=O)”, which “PSMA recognition / binding affinity with PEG spacers” value ([2]; dual ligand combination P100SP-P4-2+P100SP-P4-1 with or without spacers, LNCaP cells, FIG. 6) is on record?
Answer: no effect on binding affinity

Question: Which average cross-sectional diameter ([1]; DLS backscatter mode, scattering angle 173°, FIG. 3A) does the source give for “K14-Cys: oligolysine (K14) peptide with cysteine, wraps the phage, SEQ ID NO:2 (KKKKKKKKKKKKKKC; not fully specified (C-terminus))” here?
Answer: 50.0 nm

Question: For “PEGylated oligolysine: K14-alkyne pre-conjugated to azide PEG7, 22 or 45 by click reaction, then applied to phage (Pent4ynoyl-KKKKKKKKKKKKKK-NH2; also: alkyne click-conjugated (triazole) to azide PEG7, 22 or 45)”, which “change in the cross-sectional diameter of the treated phage” value ([1]; DLS, phage treated with pre-formed PEGylated oligolysine (data not shown)) is on record?
Answer: no significant change

Question: With “P100NSP-P4-2+P100NSP-P4-1: phage wrapped with dual ligand combination, non-specific attachment with PEG4 linker (peptide 1 SECVEVFQNSCDW-NH2; peptide 2 CALCEFLG-NH2; not fully specified (N-terminus); cysteine pairing not given here; also: PEG100 non-specific attachment with PEG4 linker)” as the substance, how does the “binding affinity of dual ligand combinations” value ([2]; LNCaP cells) read?
Answer: drop in affinity; also recorded: affinity equivalent to P100NSP-P4-2

Question: Which “binding affinity of dual ligand combinations” value ([2]; LNCaP cells) does the source give for “P100NSP-2+P100NSP-1: phage wrapped with 2:1 dual ligand combination of P100NSP-2 and P100NSP-1 (peptide 1 SECVEVFQNSCDW; peptide 2 CALCEFLG)” here?
Answer: only a modest improvement

Question: And the “recognition of PSMA on LNCaP cells” value ([2]; different ratios of the two PEGylated, phage-wrapped ligands, FIG. 4)?
Answer: maximize the recognition of PSMA on LNCaP cells

Question: Which “binding affinity for cell surface PSMA” value [2] does the source give for “P100SP-2: PEG100, specific attachment to ligand 2; bioconjugated to phage wrapped with K14-Cys (SECVEVFQNSCDW-NH2; not fully specified; cysteine pairing not given here; also: specific N-terminal attachment to Mal-PEG100 via triazole)” here?
Answer: higher binding affinity for cell surface PSMA than P100NSP-2

Question: With “P100NSP-2: PEG100, non-specific attachment to ligand 2; bioconjugated to phage wrapped with K14-Cys (SECVEVFQNSCDW-NH2; not fully specified (N-terminus); cysteine pairing not given here; also: PEG100 attached non-specifically)” as the substance, how does the “binding affinity for LNCaP cells” value ([2]; phage wrapped with K14-Cys and individual PEGylated ligand, FIG. 14) read?
Answer: higher affinity for LNCaP cells compared to P100NSP-1
